# Measurements from US20110065645A1, “Compositions and Methods for Modulating Neuron Degeneration and Neuron Guidance” (The Regents of the University of California, priority 2009, published 2011).
# B1: Wnt5a: recombinant Wnt5a protein (R&D Systems) (protein, UniProt P41221 62-380, looked up)
# Protein Wnt-5a: IIGAQPLCSQLAGLSQGQKKLCHLYQDHMQYIGEGAKTGIKECQYQFRHRRWNCSTVDNTSVFGRVMQIGSRETAFTYAVSAAGVVNAMSRACREGELSTCGCSRAARPKDLPRDWLWGGCGDNIDYGYRFAKEFVDARERERIHAKGSYESARILMNLHNNEAGRRTVYNLADVACKCHGVSGSCSLKTCWLQLADFRKVGDALKEKYDSAAAMRLNSRGKLVQVNSRFNSPTTQDLVYIDPSPDYCVRNESTGSLGTQGRLCNKTSEGMDGCELMCCGRGYDQFKTVQTERCHCKFHWCCYVKCKKCTEIVDQFVCK
# How the values were obtained:
# [1] = tested on: cortical neurons; test: Cortical neuron death/survival assay under PKCζ inhibition (Tuj1, TUNEL, DAPI staining); format: cell-based
# Source text: 1. PKCζ is required for survival of cortical neurons. E15.5 cortical neurons were dissociated and cultured for 2 days in the presence of various concentrations of a cell membrane penetrating myristoylated peptide derived in the pseudosubstrate domain of PKC (FIGS. 12A-12D). This peptide is a specific inhibitor of PKCζ.
# 2. Axon degeneration procedes cell body death when PKC is inhibited. We examined the timing of axon degeneration and cell body death. […] The death induced by PKCζ inhibition is much faster than Aβ peptide induced neuronal death (FIG. 12D), probably because the PKCζ is an essential kinase and peptide inhibition causes instant death, whereas Aβ has to bind to cell surface receptor and trigger a signaling cascade to cause death, which requires a longer time.
# 3. Wnts are trophic factors for cortical neurons. […] Nuclear shrinkage (pyknosis) is a hallmark of neuronal cell death. Using DAPI staining, we can visualize the cell nuclei (FIG. 14B). […] Initial cortical axons and dendrite form and grow but axons start to disintegrate at E18.5 (FIG. 14D, from Wang et al 2006),^(13) (FIGS. 12F, 12K). Based on our preliminary results, we propose that Wnts are not only axon guidance molecules but also regulate neuronal survival and axon degeneration acting via PKC (FIG. 15).
# 3. Survival and cell death assays for screening of monoclonal antibodies and small compounds. We use the same cell death/survival assay as described in FIGS. 12A-14D and use microtubule staining to analyze the integrity of microtubules, DAPI stain to measure the size of cell nuclei and TUNEL staining to assay cell death. Microtubule disassembly is quantified by staining intensity of Tuj1 and Tau antibodies. The size of cell nuclei is binned into difference sizes and the distribution of the nuclei size is used as quantification of pyknosis (FIG. 14C).
# [2] = tested on: JNK; test: Phospho-Jun immunoblot in HEK293T cells expressing Fzd3-mCherry; format: cell-based; conditions: Wnt5a added
# Source text: Vgl2 antagonizes Dvl1's feedback inhibition of Fzd3 mediated Wnt/PCP Signaling. To elucidate how core PCP components function cell autonomously, we first explored how Dvl1, Vgl2 and Fzd3 interact with each other. It is known that Dvl is a central cytoplamsic molecule in the activation of Wnt-PCP signaling. In non-canonical signaling, Fzd is thought recruit Dvl to the plasma membrane and Dvl then subsequently activates the downstream signaling, such as Jun N terminal kinases (JNK), Rac1 and RhoA. […] However, upon co-expression of Fzd3 and Dvl1, we found a surprising Wnt5a-dependent down regulation of p-Jun level (FIG. 17A, lanes 5-7, quantified in FIG. 17B), uncovering a novel feedback inhibition mechanism in PCP signaling. With 30 minutes of Wnt5a addition p-Jun signal is essentially gone in Fzd3 and Dvl1 co expressing cells, (FIG. 17A lane 7).
# Surface biotinylation and immunopreciptiation. […] For the membrane immunoprecipitation, 600 ug of protein extracts were incubated overnight and retrieved by NeutrAvidin-coated Agarose beads (Pierce), the bound fraction was boiled and loaded on SDS-PAGE gel and analyzed by western blot analysis. […]
# [3] = tested on: β-catenin; test: β-catenin immunostaining in commissural axon growth cones; format: cell-based; conditions: bath application; LiCl 2 mM
# Source text: To understand how atypical PKC/Par pathway regulates axon guidance, we set out to determine the subcellular localization of aPKC, their substrates and downstream cellular effectors. […] Thus, our high-resolution confocal imaging detects a tendency of β-catenin being concentrated to one side of the growth cone (FIG. 9A). It is possible that there is low level of Wnt proteins in the culture (many neurons express Wnts). […] Therefore, it is also possible that intrinsic aPKC signaling can create chirality within the growth cone with out extrinsic signals. Such intrinsic polarity may then robustly regulate cellular morphology upon directional instructions from the environment such as a Wnt gradient. It is well known that GSK3β phosphorylates β-catenin, which then leads to proteosome-mediated degradation of β-catenin. And it is also known that GSK3β is phosphorylated and inhibited by PKCζ^(1,2). Therefore, inhibiting GSK3β or the proteosome activity generally should increase β-catenin level throughout the growth cone, canceling the asymmetry. […] We are now testing the hypothesis that Wnt proteins may locally activate PKCζ, which then inhibits GSK3β and locally stabilizes β-catenin, which is part of the asymmetric cellular mechanism leading to directional choice of a growth cone. We examine the localization of β-catenin in post-crossing commissural axon growth cones in the “post-crossing” assay and “open-book” assays.
# [4] = tested on: JNK; test: Phospho-Jun immunoblot in dissociated commissural neurons; format: cell-based, rat; conditions: within 15 minutes of bath application; 200 ng/ml
# Source text: JNK is activated by Wnt5a in commissural axons and required for their A-P guidance. Several Wnt genes are expressed in an anterior-posterior gradient in or around the floor plate of the spinal cord. However, the mechanisms of how Wnt signaling mediates axon attraction and growth have yet to be elucidated. We tested whether JNK signaling is activated in commissural neurons via Wnt5a stimulation by measuring the levels of phospho Jun (FIG. 20A) and also examined whether JNK is required for A-P guidance of commissural axons. Commissural neurons were cultured for 36 hrs and subject to bath application of Wnt5a. […] Furthermore, endogenous Fzd3 and Vgl2 proteins can be detected in rat E13 commissural neuron lysates after 36 hours in culture (anti-Fzd3 and anti-Vgl2 IB, FIG. 20A). The specificity of Fzd3 and Vgl2 antibodies for western blot analysis was validated using knock and mutant mouse line (FIG. 27D and FIG. 27E).
# Commissural neuron culture, treatment and lysis. Rat E13 embryos were dissected and commissural neuron culture was prepared as previously described (Augsburger et al., 1999). […] The cells were then lysed on ice and the lysates were analyzed on immunoblots.
molecule,measurement,setting,value
B1,axon degeneration / reduction of microtubule staining (Tuj1),[1]; 5 um pseudosubstrate peptide,much less degeneration was seen
same,axons remaining judged by Tuj1 staining,[1]; 10 um pseudosubstrate peptide,more axons still remain
same,cell death induced by PKC inhibition,[1]; pretreatment before pseudosubstrate peptide,block/reduce the cell death
same,p-Jun level,[2],increased
same,β-catenin level and asymmetry in the growth cone,[3],increased the levels of β-catenin throughout the growth cone
same,increase of endogenous phospho-Jun levels,[4],4 fold
